In article PMC6317261, “Functional dissection of the developmentally restricted BEN domain chromatin boundary factor Insensitive” (Epigenetics & Chromatin, 2019):
Values joined by “and” are separate entries in the source; they are usually repeats but may differ in a detail not shown here. Equal values may be shown once.

Legend:
GST = test: cross-linking; controls GST and Thioredoxin; the cross-linker is not named in the legend
[1] = target: the molecule itself; test: SEC; Superose 6 10/300 column; 500 uL of the eluted protein loaded; fractions analysed by SDS-PAGE and EMSA; sizes estimated against Bio-Rad standards
HT:F-Insv [2] = target: T1, HT:F-Insv (UniProt Q8SYK5 1-376); test: EMSA; multiple shifts; 0.0005-0.5 uM protein; EMSA: 25 mM Tris-HCl pH 7.4, 100 mM KCl, 1 mM EDTA, 0.1 mM DTT, 0.1 mM PMSF, 0.03 mg/mL BSA, 10% glycerol, 0.5% Triton X-100, 0.25 mg/mL poly(dI-dC), 30 min room temperature; settings: protein: recombinant; tags: N-terminal His-Thioredoxin; label: 5'-32P; blunt
T1 sequence: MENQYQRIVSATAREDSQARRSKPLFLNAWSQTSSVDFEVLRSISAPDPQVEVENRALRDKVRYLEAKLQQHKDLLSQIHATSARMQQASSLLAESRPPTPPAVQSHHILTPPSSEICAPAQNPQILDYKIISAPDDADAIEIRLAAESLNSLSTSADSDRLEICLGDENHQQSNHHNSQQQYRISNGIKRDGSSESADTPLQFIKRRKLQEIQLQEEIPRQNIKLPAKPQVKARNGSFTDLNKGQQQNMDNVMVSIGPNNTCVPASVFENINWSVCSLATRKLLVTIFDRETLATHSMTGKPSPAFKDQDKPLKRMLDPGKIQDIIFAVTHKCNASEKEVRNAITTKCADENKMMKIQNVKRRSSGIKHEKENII

HS:C-BEN [3] = target: T2, HS:C-BEN (UniProt Q8SYK5 210-376); test: EMSA; multiple shifts, mainly tetramer/hexamer; EMSA: 25 mM Tris-HCl pH 7.4, 100 mM KCl, 1 mM EDTA, 0.1 mM DTT, 0.1 mM PMSF, 0.03 mg/mL BSA, 10% glycerol, 0.5% Triton X-100, 0.25 mg/mL poly(dI-dC), 30 min room temperature; settings: protein: recombinant; tags: N-terminal His-Sumo; chain copies: 2; label: 5'-32P; blunt
T2 sequence: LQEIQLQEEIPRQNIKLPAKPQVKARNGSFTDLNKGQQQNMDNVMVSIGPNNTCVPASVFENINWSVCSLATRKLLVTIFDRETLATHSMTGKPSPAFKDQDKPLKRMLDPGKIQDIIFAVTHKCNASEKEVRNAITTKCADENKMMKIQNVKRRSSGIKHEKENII

HT:F-Insv [4] = target: T1, HT:F-Insv; test: EMSA; at least three shifts; EMSA: 25 mM Tris-HCl pH 7.4, 100 mM KCl, 1 mM EDTA, 0.1 mM DTT, 0.1 mM PMSF, 0.03 mg/mL BSA, 10% glycerol, 0.5% Triton X-100, 0.25 mg/mL poly(dI-dC), 30 min room temperature; settings: protein: recombinant; tags: N-terminal His-Thioredoxin; label: 5'-32P; blunt
HS:C-BEN [5] = target: T2, HS:C-BEN; test: EMSA; multiple shifts, at lower protein than for P2; EMSA: 25 mM Tris-HCl pH 7.4, 100 mM KCl, 1 mM EDTA, 0.1 mM DTT, 0.1 mM PMSF, 0.03 mg/mL BSA, 10% glycerol, 0.5% Triton X-100, 0.25 mg/mL poly(dI-dC), 30 min room temperature; settings: protein: recombinant; tags: N-terminal His-Sumo; chain copies: 2; label: 5'-32P; blunt

GST (natural protein)
stoichiometry N (GST): 2

B1: His-Thioredoxin F-Insv (HT:F-Insv) (natural protein, Drosophila, UniProt Q8SYK5 1-376, looked up)
chain: MENQYQRIVSATAREDSQARRSKPLFLNAWSQTSSVDFEVLRSISAPDPQVEVENRALRDKVRYLEAKLQQHKDLLSQIHATSARMQQASSLLAESRPPTPPAVQSHHILTPPSSEICAPAQNPQILDYKIISAPDDADAIEIRLAAESLNSLSTSADSDRLEICLGDENHQQSNHHNSQQQYRISNGIKRDGSSESADTPLQFIKRRKLQEIQLQEEIPRQNIKLPAKPQVKARNGSFTDLNKGQQQNMDNVMVSIGPNNTCVPASVFENINWSVCSLATRKLLVTIFDRETLATHSMTGKPSPAFKDQDKPLKRMLDPGKIQDIIFAVTHKCNASEKEVRNAITTKCADENKMMKIQNVKRRSSGIKHEKENII
notes: Insensitive (Insv), Drosophila, full-length; also called HT:Insv; HT-Insv; source: E. coli, purified (Ni-NTA Agarose); not shown: His6, N-terminal, kept; Thioredoxin, N-terminal, kept
stoichiometry N [1]: 2 and 4

B2: P2 (P2#7) (dsDNA)
DNA 1: CTTGCGCAGGACTTTTGAGATTCTATTAAATTCTAACAAGATTTCAAGCTGTGTGGCGGGGGGAAGAGGAAGAGAGCGGAAAGTGCAGCGCCCAATAAGCAAATGGCAGCTGTCACG
DNA 2: CGTGACAGCTGCCATTTGCTTATTGGGCGCTGCACTTTCCGCTCTCTTCCTCTTCCCCCCGCCACACAGCTTGAAATCTTGTTAGAATTTAATAGAATCTCAAAAGTCCTGCGCAAG
binding result (HT:F-Insv [2]): binds
binding result (HS:C-BEN [3]): binds

B3: 2xPal (dsDNA)
DNA 1: CTCGAGGGGTTTCTTTCCCAATTGGAAATGCGTCCTGTCGAGGGGTTTCTTTCCCAATTGGAAATGCGTCCTGTCGACGGTATCGATAAGCTTGATATCGAATTCCTGCAGCCCGGGGATCC
DNA 2: GGATCCCCGGGCTGCAGGAATTCGATATCAAGCTTATCGATACCGTCGACAGGACGCATTTCCAATTGGGAAAGAAACCCCTCGACAGGACGCATTTCCAATTGGGAAAGAAACCCCTCGAG
binding result (HT:F-Insv [4]): binds
binding result (HS:C-BEN [5]): binds
